This note sets out measurements from patent US20150259430A1 (MAB DISCOVERY, published 2015).

B1: Antibody 28 (antibody, V domains shown)
VH: QEQLEESGGDLVKPGASLTLTCKVSGFSLTSGYYMCWVRQAPGKGLEWLACIYTGSSGRTYYASWAKGRFTISKTSSTTVTLQMTSLTAADTATFFCARELYLSSVLWGPGTLVTVSS
VL: DVVMTQTPASVSEPVGGTVTIKCQASQSISSSYLSWYQQKPGQPPKLLIYRASTLESGVPSRFKGSGSGTEFTLTISDLECADAATYYCQCTDYAGSYVGGAFGGGTEVVVK
notes: rabbit IgG in B-cell supernatant
B2: Antibody 52 (antibody, V domains shown)
VH: QSVEESGGRLVTPGTALTLTCTVSGFSLSSGDMSWVRQAPGKGLEWIGYIWSGVSTYYANWAKGRFTISKTSSTTVDLKMTSLTIEDTATYFCARVDFYSYVYSLWGPGTLVTVSS
VL: ALVMTQTPASVEAAVGGTVTIKCQASQSISSCLAWYQQKPGQPPKLLIYSASTLASGVPSRFKGSGSGTEYTLTISGVECADAATYYCQQHYTSNNIDNAFGGGTEVVVK
notes: as for B1
B3: Antibody 56 (antibody, V domains shown)
VH: QSLEESGGRLVTPGTPLTLTCTASGFSLSSYDLSWVRQAPGKGLEWIAYIWSGDKTYYANWAKGRFTISKTSSTTVDLKMTSLTTEDTATYFCATVNIYSYVYSLWGPGTLVTVSS
VL: B2 VL with L2Y, V3D, A13V, S31T, C32A, P40S, S50L, T93S, I97V
notes: as for B1
B4: Antibody 55 (antibody, V domains shown)
VH: QSLEESGGRLVTPGGSLTLTCTVSGSDISSYDMSWVRQAPGKGLEWIGYIWSGTTIYYASWPKGRFTISKTSSTTVDLKMTSLTTEDTATYFCAAINIYTYVYSLWGPGTLVTVSS
VL: AYDMTQTPASVEAAVGGTVTIKCQASESIYSSLAWYQQKSGQPPKLLIYLASTLASGVPSRFKGSGSGTDYTLTISGVECADAATYYCQQHYSGSNVDNAFGGGTEVVVK
notes: as for B1
B5: Antibody 53 (antibody, V domains shown)
VH: B4 VH with S30T, M33A, T55K, I56T, P62A, A95T, I96V, I98T
VL: B4 VL with A13V, E27Q, Y30S, D70E, S93T, G94A, S95L
notes: as for B1
B6: Antibody 32 (antibody, V domains shown)
VH: QSVEESGGRLVTPGTPLTLTCTVSGFSLSSYDMSWVRQAPGKGLEWIGFIDGDSNTYDATWAKGRFTISKTSTTVDLKITSPTTEDTATYFCTRGFNLWGQGTLVTVSS
VL: DVVMTQTPASVSEPVGGTVTIKCQASQSISSYLAWYQQKPGQPPKLLIYKASTLASGVSSRFKGSGSGTEFTLTISDLECADAATYYCQCSAGGRSGIGGFGGGTEVVVK
notes: as for B1
B7: Antibody 24 (antibody, V domains shown)
VH: QSVEESGGRLVTPGTPLTLTCTVSGFSLSSNAISWVRQAPGKGLEWIGFINIYGSTYYASWAKGRFTISRTSTTVDLKMTSLTTEDTATYFCARDRTGDSPTRLDLWGQGTLVTVSS
VL: DVVMTQTPASVEAAVGGTVTIKCQASQSISSYLSWYQQKPGQPPKLLIYDASTLASGVPSRFKGSGSGTQFTLTISDLECADAATYYCQCTYGYGASSAYGNAFGGGTEMVVK
notes: as for B1
B8: Antibody 6 (antibody, V domains shown)
VH: QSVEESGGRLVTPGTPLTLTCTVSGFSLSSYTMGWVRQAPGKGLEYIGIINTGGYTYYASWAKGRFTISRTSTTVDLSMTSLTTEDTATYFCARVYPGSSCDLWGQGTLVTVSS
VL: B1 VL
notes: as for B1
B9: Antibody 72 (antibody, V domains shown)
VH: QSLEESGGRLVTPGTLLTLTCTASGIDLSGHAMAWVRQAPGKGLEWIGIIYDNGITNYPTWAKGRFTISKTSTTVELKFTSPTTEDTATYFCARDTGNGALRLTLWGPGTLVTVSS
VL: DIVMTQTPSPVSAAVGGTVTIKCQASQSIGSWLSWYQQKPGQRPKLLIYGASTLESGVPSRFKGSGSGTEFTLTISDLECADAATYYCHCTYGSVSGNAFGGGTEVVVK
notes: as for B1
B10: Antibody 78 (antibody, V domains shown)
VH: QSVEESGGRLVTPGTPLTLTCTVSGIDLSSYWMIWVRQAPGEGLEYIGFISNGGGAYYANWTKGRFTISRTSTTVDLKMTSLTTEDTATYFCARAYTTVTIGGFDLWGPGTLVTVSS
VL: AYDMTQTPASVEVAVGGTVTINCQASQNIYNGLAWYQQKPGQPPKLLIYLASTLASGVPSRFKGSGSGTEFTLTISDLECADAATYYCQQGFSVNNVGNVFGGGTEMVVK
notes: as for B1
B11: Antibody 21 (antibody, V domains shown)
VH: QEHLEESGGGLVKPPGSLTLTCTASGFSFSSTYYICWVRQAPGKGLEWIGCIYAGSGTTYYASWAKGRFTISKTSSTTVTLQMASLTAADTATYFCARSSDSWTYGMDLWGPGTLVTVSS
VL: DIVMTQTPASVSEPVGGTVTIKCQASQSISSYLAWYQQKPGQPPKRLIYKASTLASGVPSRFKGSGSGTDFTLTISDLECADAATYYCQCTYGNTGSNFFYGFGGGTEVVVK
notes: as for B1
B12: Antibody 1 (antibody, V domains shown)
VH: QSLEESGGRLVTPGTPLTLTCTASGFSLSSYAMIWVRQAPGEGLEYIGIIITGGSAYYANWAKGRFTISRTSTTVDLKMTSLTTEDTATYFCARGYSGSSGDLWGQGTLVTVSS
VL: DVVMTQTPASVSEPVGGTVTIKCQASQSISSWLSWYQQKPGQPPKLLIYGASNLASGVSSRFKGSRSGTEYTLTISDLECADAATYYCQCTDYTSKYVGAFGGGTEVLVR
notes: as for B1
B13: Antibody 74 (antibody, V domains shown)
VH: QSVEESGGRLVTPGTPLTLTCTVSGFSLSSGYMNWVRQAPGKGLEWIGRIHTLSGSIWYASWVKGRFTISKTSTTVDLKMTSLTTKDTATYFCARGNAGGSIEYGMDLWGPGTLVTVSA
VL: AYDMTQTPASVEAAVGGTVTIKCQASESITNYLNWYQQKPGQPPKLLIYSASTLASGVPSRFKGSGSGTQFTLTISGVECADAGTYYCQQGYSLINVGDIFGGGTEVVVR
notes: as for B1
B14: Antibody 15 (antibody, V domains shown)
VH: QSVEESGGRLVTPGTPLTLTCTVSGFSLNSHAMSWVRQAPGKGLEWIGIISSSGSAWYATWVKGRFTISKTSTTVDLKMTSLTTEDTATYFCARDSAMVPSNFNLWGQGTLVTVSS
VL: AIEMTQSPPSLSASVGETVRIRCLASEFLFNAVSWYQQKPGKPPTLLISGASNLESGVPPRFSGSGSGTDYTLTIGGVQAEDVATYYCLGDFSGGADLTFGAGTKVEIK
notes: as for B1
B15: Antibody 18 (antibody, V domains shown)
VH: QSVEESGGRLVTPGTPLTLTCTVSGFSLSTYWMSWVRQAPGKGLEYIGFINTGGNAYYASWAKGRFTISKTSTSVDLKITSPTTEDTATYFCAGAYVGDVGDGYALTLWGQGTLVTVSS
VL: DVVMTQTPASVSEPVGGTVTIKCQASQSIGNKLAWYQQVPGQPPKLLIYSASPLASGVSSRFKGSRSGTEYTLTISDLECADAATYYCQCTYYGSSGNAFGGGTEVVVK
notes: as for B1
B16: Antibody 79 (antibody, V domains shown)
VH: QSVEESGGRLVTPGTPLTLTCTVSGFSLSSNAMSWVRQAPGKGLEWIGIINIYGSTNYASWAKGRFTISKTSSTTVDLKITSPTTEDTATYFCARDYGGVSATRLDLWGQGTLVTVSS
VL: B7 VL with S30G, T53N, A55E, S56D, Q70E, F71Y, A84V, A96I, A99S, M110V
notes: as for B1
B17: Antibody 9 (antibody, V domains shown)
VH: QEQLEESGEGLVKPGTPLTLTCTASGFSLSSGDMSWVRQAPGKGLEWIGTIGVDGSTDYANWAEGRFTISRTSTTVDLKMTSPTTEDTATYFCARGLFDDYTFNLWGQGTLVTVSS
VL: AYDMTQTPASVEVAVGGTVTIKCQASQNIYTYLSWYQQKPGQPPKLLIYKTSTLASGVPSRFSGSGSGTEYTLTVSGVQCDDAATYYCQQGYTTSSNVATPFGGGTEVVVK
notes: as for B1
B18: Antibody 45 (antibody, V domains shown)
VH: QSVEESGGRLVTPGTPLTLTCTVSGFSLSSYAMTWVRQAPGKGLEWIGIIDHSRATYYANWAKGRFTISKTSSTTVDLKVTSLTTEDTATYFCARFFNPGGSGYLRLWGQGTLVTVSS
VL: DVVMTQTPASVSEPVGGTVTIKCQASQIISNWLAWYQQKPGQPPKLLIYGASILASGVPSRFKASRSGTDYTLTIGDLECADAATYYCQCPDYSDTSLGSFGGGTEVVVR
notes: as for B1
B19: Antibody 88 (antibody, V domains shown)
VH: QSVEESGGRLVTPGTPLTLTCTVSGFPLSSYVMSWVRQAPGTGLEYIGIVGIGGSAYYASWAKGRFTISRTSTTVDLKMTSLTPEDTATYFCARGAGGNFYSPLDLWGQGTLVTVSS
VL: DIVMTQTASPLSGAVGGTVTIKCQASQSISNELAWYQQKPGQRPKLLIYLASTLASGVPSRFKGSGSGTDFTLTISDLECADAATYYCQSYSDTSSISYGYGFGGGTEVVVK
notes: as for B1
B20: Antibody 34 (antibody, V domains shown)
VH: QEQLVESGGGLVQPEGSLTLTCKASGFSFSSGYYMCWVRQAPGKGLEWIACIYADSSESTYYASWAKGRFTISKTSSTTVTLQVTSLTAADTATYFCARWGTVAGYSTFNLWGPGTLVTVSS
VL: DVVMTQTPASVSEPVGGTVTIKCQASQSISTALAWYQQKPGQPPKLLIYFTSTLASGVSSRFKGSGSGAEFTLTISDLECADAATYYCQGYYYVTNFPFGGGTEVVVK
notes: as for B1
B21: Antibody 20 (antibody, V domains shown)
VH: QSLEESGGGLVQPEGSLTLTCTASGLDASSNCWVCWVRQAPGKGLEWIACIYAIGSGVTYYASWVNGRFSISKTSSTTVTLQMTSLTVADTATYLCARVLNGVGYIDLWGPGTLVTVSS
VL: DIVMTQTPSSVEAAVGGTVTIKCQASQSVYNNNWLAWYQQIPGQPPKLLIYESSTLASGVPSRFKGSGSGTQFTLTISDVQCDDAAMYYCQTYYYSSSRTYAFGGGTEVVVK
notes: as for B1

Changes are numbered by the printed parent chain.

T2 sequence (P21860 20-643, change not shown): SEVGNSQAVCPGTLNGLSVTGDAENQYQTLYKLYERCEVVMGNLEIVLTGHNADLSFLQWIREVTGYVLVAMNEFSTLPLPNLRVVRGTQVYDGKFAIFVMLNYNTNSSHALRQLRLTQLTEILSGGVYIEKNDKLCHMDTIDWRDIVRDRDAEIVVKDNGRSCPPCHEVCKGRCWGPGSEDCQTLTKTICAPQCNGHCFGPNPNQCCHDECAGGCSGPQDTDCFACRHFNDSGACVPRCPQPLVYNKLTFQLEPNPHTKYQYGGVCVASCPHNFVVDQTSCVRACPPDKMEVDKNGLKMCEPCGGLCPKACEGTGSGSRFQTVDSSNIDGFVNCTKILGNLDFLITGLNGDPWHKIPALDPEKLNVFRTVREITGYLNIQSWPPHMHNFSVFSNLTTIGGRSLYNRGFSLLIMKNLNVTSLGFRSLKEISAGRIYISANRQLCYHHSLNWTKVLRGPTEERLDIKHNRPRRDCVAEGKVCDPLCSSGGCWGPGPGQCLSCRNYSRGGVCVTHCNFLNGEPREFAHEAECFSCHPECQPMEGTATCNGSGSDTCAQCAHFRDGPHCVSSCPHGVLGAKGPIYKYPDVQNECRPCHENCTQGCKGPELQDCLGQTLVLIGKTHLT

The first experiment has as its target T1, recombinant Fc chimeric conjugate of human HER2 (human, UniProt P04626 23-652).
T1 construct: extracellular domain; Coated on the ELISA plate
Description: ELISA, coated antigen.
Description: (§1) Microtiter plates were coated with a) c-Met, IGF-1R, EGFR, HER2, and/or HER3 protein or b) EGFR, HER2, and/or HER3 (recombinant Fc chimeric conjugates of human c-Met, IGF-1R, EGFR, HER2, HER3 or IL12 Rβ1). After a blocking process, specific antibodies from B-cell supernatants bind to the targets and are then detected by a POD-labeled anti-rabbit IgG antibody. The IL12R binding was used as a counter-screen.
(§2) 12.5 μL 0.5 μg/mL protein in PBS was transferred to a microtiter plate incubated and washed 3× with Wash Buffer. 90 μL Block Buffer was added to each well, incubated and washed. 12.5 μL Standard Antibody (Anti-EGF-Receptor; HER2 Rabbit anti-Human Monoclonal (extracellular domain) (SP3) Antibody; HER3 (N-terminal) antibody; start concentration 2 μg/ml; IL-12Rbeta1 antibody start concentration 500 ng/ml) in 1:2 dilutions or sample diluted in ELISA buffer was added, incubated and washed. 12.5 μl 1:5000 POD-Antibody (Anti-rabbit IgG, peroxidase-linked species-specific Fab2 fragment (from donkey) (ECL); assay dilution: 1:5000) in Elisa Buffer was added, incubated and washed. 15 μl TMB was added and 15 μl HCl was added after sufficient development. Absorbance (Optical Density O.D.) was read at 450 nm/620 nm.
B1: the binding result is “no binding (tested: OD 0.1 or lower)”.

With B2, the binding result was “no binding (tested: OD 0.1 or lower)”.

Take B3: the binding result was “no binding (tested: OD 0.1 or lower)”.

For B4, the binding result was “no binding (tested: OD 0.1 or lower)”.

In the case of B5, the binding result was “no binding (tested: OD 0.1 or lower)”.

Take B6: the binding result was “no binding (tested: OD 0.1 or lower)”.

B7: the binding result is given as “no binding (tested: OD 0.1 or lower)”.

Another experiment has as its target T2, recombinant Fc chimeric conjugate of human HER3 (human, UniProt P21860 20-643).
T2 construct: extracellular domain; Coated on the ELISA plate
Description: ELISA, coated antigen.
Description: as §1, §2
Regarding B8, the binding result is “no binding (tested: OD 0.1 or lower)”.

Turning to B9, the binding result is listed as “no binding (tested: OD 0.1 or lower)”.

B10: the binding result is given as “no binding (tested: OD 0.1 or lower)”.

Take B11: the binding result is “no binding (tested: OD 0.1 or lower)”.

On to B12, for which the binding result is “no binding (tested: OD 0.1 or lower)”.

In the case of B13, the binding result is “no binding (tested: OD 0.1 or lower)”.

As for B14, the binding result was “no binding (tested: OD 0.1 or lower)”.

Turning to B15, the binding result is “no binding (tested: OD 0.1 or lower)”.

Consider B16, for which the binding result was “no binding (tested: OD 0.1 or lower)”.

For the molecule B17, the binding result is “no binding (tested: OD 0.1 or lower)”.

Regarding B18, the binding result is “no binding (tested: OD 0.1 or lower)”.

For the molecule B19, the binding result was “no binding (tested: OD 0.1 or lower)”.

As to B20, the binding result was “no binding (tested: OD 0.1 or lower)”.

As to B21, the binding result is listed as “no binding (tested: OD 0.1 or lower)”.
